{"source": "paper PMC5611513", "about": "“Structure-Based Prototype Peptides Targeting the Pseudomonas aeruginosa Type VI Secretion System Effector as a Novel Antibacterial Strategy” (Frontiers in Cellular and Infection Microbiology, 2017)", "test_system": "E. coli BL21 (DE3)", "assay": "Cell-toxicity assay, spot growth on LB agar", "assay_type": "cell-based, Escherichia coli", "settings": "E. coli BL21 (DE3), 0.045 mM IPTG, 24 h", "method": "Cell-toxicity assay was carried as previously described with minor modification (Jiang et al., [2016]). […] A 2 μl bacterial dilution was spotted onto LB agar plate containing 0.045 mM IPTG. Images were taken after 24 h growth.\n(A) Diagrams of TplE, TplE-TplEi and “L” peptide expressing constructs. Expression of vector sequence and “L” peptide mutant with the PelB signal peptide was used as a control. […] A 10-fold serial dilution of overnight culture was spotted on LB agar plates from left to right. The experiments were performed at least 3 times.", "data": [{"molecule": "TplE: H2-T6SS-dependent antibacterial lipolytic toxin (lipase effector) of P. aeruginosa (protein) MSSEPLEPNQDVIIPRSRDSLGRPVYKAQLTRTDNQSEKVALIRQTAPLPVIFIPGIMGTNLRNKADKSEVWRPPNGLWPMDDLFASIGALWTWAWRGPKARQELLKAEQVEVDDQGTIDVGQSGLSEEAARLRGWGKVMRSAYNPVMGLMERRLDNIVSRRELQAWWNDEALSPPGDQGEEQGKVGPIDEEELLRASRYQFDVWCAGYNWLQSNRQSALDVRDYIENTVLPFYQKECGLDPEQMRRMKVILVTHSMGGLVARALTQLHGYERVLGVVHGVQPATGSSTIYHHMRCGYEGIAQVVLGRNAGEVTAIVANSAGALELAPSAEYREGRPWLFLCDAQGQVLKDIDGKPRAYPQNQDPYEEIYKNTTWYGLVPEQNSQYLDMSDKKEGLRVGPRDNFEDLIDSIANFHGELSAAGYHSETYAHYGADDSRHSWRDLIWKGDPTPLETPGATLNDDENGTYNSWFRRGLPTIVQGPLETGNPLDASGSGGDETVPTDSGQAPALAGVKASFRHGSKGKGQANTKRGYEHQESYNDARAQWAALYGVIKITQLADWHPNDKGGT", "values": [{"measurement": "growth of E. coli on periplasmic expression of TplE", "setting": "periplasmic-targeted TplE alone", "result": "significant inhibition of growth"}]}, {"molecule": "TplEi: cognate periplasmic immunity protein that neutralizes TplE (protein) CTSFSSSRSSSMDKTGWITHCFGRFLIDLPPDAVINAGYYLWGDRIEYLDDKPTELAARVDRLEQEWRTQRHKSKGNMFLRKIDFGNESVGLLSWSSEVASKTYLLDTYVTSKPTWHVYRWKGKVSVDREQHAVEISRALARNLRSRAPKEIPSEPGFCIDHAYIAGDSFQVERFGVGVTFPEHPGARFEFRSSTGAELNSLLERVDGFVQNMLSTFAGMETLRKGKHPVGSLPGEEYLVAGSDKGQRGYTFMWEVQGKEESLTEPNLTAGLAVLERSNENGKPPPPAFKSDKEALELWDTIVDSIRVRPTSSSPRGGNAGPSPAPKPATPGGQTLGDHYVYEEFLSSLKPKDSWLDDL", "values": [{"measurement": "effect of co-expression of TplEi on TplE-dependent growth inhibition", "setting": "TplE-TplEi co-expressed", "result": "repressed the TplE-dependent growth inhibition"}]}]}
